This assay has as its target GroEL14 as used with the substrate proteins NanA and DapA (E. coli) (UniProt P0A6F5). The experiment in a line: native MS; CE-MS; 6 µM GroEL14 with 6 or 12 µM substrate monomers, denatured in 6.5 M GuHCl and 9 mM DTT and diluted 30-fold into GroEL14 buffer pH 7.5 (200 mM GuHCl, 0.3 mM DTT left); no ATP, no GroES; BGE 50 mM ammonium acetate pH 6.7.

Experimental findings from article PMC10953559 are described below.

Values joined by “and” are separate entries in the source; they are usually repeats but may differ in a detail not shown here. Identical values can stand only once.

B1: dihydrodipicolinate synthase, denatured monomer (DapA) (enzyme)
chain: MFTGSIVAIVTPMDEKGNVCRASLKKLIDYHVASGTSAIVSVGTTGESATLNHDEHADVVMMTLDLADGRIPVIAGTGANATAEAISLTQRFNDSGIVGCLTVTPYYNRPSQEGLYQHFKAIAEHTDLPQILYNVPSRTGCDLLPETVGRLAKVKNIIGIKEATGNLTRVNQIKELVSDDFVLLSGDDASALDFMQLGGHGVISVTANVAARDMAQMCKLAAEGHFAEARVINQRLMPLHNKLFVEPNPIPVKWACKELGLVATDTLRLPMTPITDSGRETVRAALKHAGLL
For B1, the share of the total signal intensity, GroEL14-DapA2 complex stood at 80%; the stoichiometry N (DapA monomers per GroEL14) was 1 and 2.
